Measurements published in the supplement of paper PMC9112550, “Optimization of the antimicrobial peptide Bac7 by deep mutational scanning” (BMC Biology, 2022).

Each sequence was assayed on Escherichia coli TOP10 (assay: shrunken log2 fold change of peptide-encoding DNA abundance (4.5 h post-induction vs induction); higher = less antimicrobial activity (less host growth inhibition)). Details: time post-induction: 4.5 h; library: site-saturation at positions 5, 18, 19, 20.
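Further: peptides expressed intracellularly from a pBAD plasmid library in pooled LB shake-flask culture, induced with 0.3% L-arabinose, DNA abundance read by NGS, three biological replicates, DESeq2 with apeglm shrinkage.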

Sequence	shrunken log2 fold change
RRIRARPPRLPRPRPRPEPEPRP	0.967
RRIRIRPPRLPRPRPRPECSPRP	-0.428
RRIRLRPPRLPRPRPRPPAGPRP	0.607
RRIRARPPRLPRPRPRPHKKPRP	-0.163
RRIRGRPPRLPRPRPRPIWHPRP	0.213
RRIRNRPPRLPRPRPRPMKDPRP	0.145
RRIRYRPPRLPRPRPRPNCRPRP	-0.134
RRIRFRPPRLPRPRPRPNKAPRP	-0.268
RRIRCRPPRLPRPRPRPGLFPRP	0.154
RRIRCRPPRLPRPRPRPVQIPRP	-0.0351
RRIRNRPPRLPRPRPRPNIRPRP	-0.103
RRIRARPPRLPRPRPRPMIVPRP	-0.262
RRIRKRPPRLPRPRPRPKEQPRP	-0.0322
RRIRYRPPRLPRPRPRPIHMPRP	-0.0796
RRIRCRPPRLPRPRPRPLMPPRP	-0.151
RRIRQRPPRLPRPRPRPKAWPRP	-0.0334
RRIRVRPPRLPRPRPRPKFPPRP	0.102
RRIRWRPPRLPRPRPRPEAGPRP	0.877
RRIRKRPPRLPRPRPRPNGKPRP	-0.114
RRIRNRPPRLPRPRPRPFNIPRP	0.0411

Sequence	shrunken log2 fold change
RRIRMRPPRLPRPRPRPPWRPRP	1.34
RRIRERPPRLPRPRPRPRWWPRP	0.0167
RRIRSRPPRLPRPRPRPYGWPRP	0.328
RRIRYRPPRLPRPRPRPEYNPRP	-0.15
RRIRHRPPRLPRPRPRPAFSPRP	-0.0483
RRIRPRPPRLPRPRPRPHGCPRP	0.0229
RRIRYRPPRLPRPRPRPYHCPRP	-0.00776
RRIRQRPPRLPRPRPRPTGDPRP	0.349
RRIRFRPPRLPRPRPRPESDPRP	0.17
RRIRGRPPRLPRPRPRPFHSPRP	-0.155
RRIRHRPPRLPRPRPRPKHWPRP	0.26
RRIRARPPRLPRPRPRPGQYPRP	0.0253
RRIRRRPPRLPRPRPRPGEMPRP	0.122
RRIRERPPRLPRPRPRPETLPRP	-0.0176
RRIRYRPPRLPRPRPRPPDVPRP	-0.0764
RRIRTRPPRLPRPRPRPDEVPRP	-0.0587
RRIRQRPPRLPRPRPRPNARPRP	-0.0902
RRIRCRPPRLPRPRPRPMTFPRP	-0.0603
RRIRSRPPRLPRPRPRPIPKPRP	0.125
RRIRFRPPRLPRPRPRPPFKPRP	-0.183

Sequence	shrunken log2 fold change
RRIRCRPPRLPRPRPRPVCRPRP	-0.0309
RRIRIRPPRLPRPRPRPIPKPRP	-0.0993
RRIRLRPPRLPRPRPRPTWYPRP	-0.221
RRIRTRPPRLPRPRPRPYVYPRP	-1.18
RRIRLRPPRLPRPRPRPLLNPRP	-0.468
RRIRLRPPRLPRPRPRPWTSPRP	-0.384
RRIRCRPPRLPRPRPRPKKCPRP	-0.186
RRIRWRPPRLPRPRPRPIIRPRP	-0.00231
RRIRWRPPRLPRPRPRPFLRPRP	0.0966
RRIRNRPPRLPRPRPRPANSPRP	-0.153
RRIRCRPPRLPRPRPRPNNAPRP	-0.799
RRIRKRPPRLPRPRPRPLDTPRP	0.000649
RRIRLRPPRLPRPRPRPARVPRP	0.329
RRIRFRPPRLPRPRPRPATVPRP	0.00554
RRIRSRPPRLPRPRPRPRVKPRP	-0.224
RRIRERPPRLPRPRPRPDSKPRP	-0.312
RRIRHRPPRLPRPRPRPHPNPRP	-0.063
RRIRKRPPRLPRPRPRPSWFPRP	-0.168
RRIRMRPPRLPRPRPRPTWGPRP	0.564
RRIRGRPPRLPRPRPRPSWFPRP	0.373
